From PMC11574045, “A cofactor-induced repressive type of transcription factor condensation can be induced by synthetic peptides to suppress tumorigenesis” (The EMBO Journal, 2024)

B1: BANP (protein, UniProt Q8N9N5 1-519, looked up)
Protein BANP: MMSEHDLADVVQIAVEDLSPDHPVVLENHVVTDEDEPALKRQRLEINCQDPSIKTICLRLDSIEAKLQALEATCKSLEEKLDLVTNKQHSPIQVPMVAGSPLGATQTCNKVRCVVPQTTVILNNDRQNAIVAKMEDPLSNRAPDSLENVISNAVPGRRQNTIVVKVPGQEDSHHEDGESGSEASDSVSSCGQAGSQSIGSNVTLITLNSEEDYPNGTWLGDENNPEMRVRCAIIPSDMLHISTNCRTAEKMALTLLDYLFHREVQAVSNLSGQGKHGKKQLDPLTIYGIRCHLFYKFGITESDWYRIKQSIDSKCRTAWRRKQRGQSLAVKSFSRRTPNSSSYCPSEPMMSTPPPASELPQPQPQPQALHYALANAQQVQIHQIGEDGQVQVGHLHIAQVPQGEQVQITQDSEGNLQIHHVGQDGQLLEATRIPCLLAPSVFKASSGQVLQGAQLIAVASSDPAAAGVDGSPLQGSDIQVQYVQLAPVSDHTAGAQTAEALQPTLQPEMQLEHGAIQIQ
B2: PRDM16 (protein, UniProt Q9HAZ2 1-1276, looked up)
Histone-lysine …: MRSKARARKLAKSDGDVVNNMYEPNRDLLASHSAEDEAEDSAMSPIPVGPPSPFPTSEDFTPKEGSPYEAPVYIPEDIPIPADFELRESSIPGAGLGVWAKRKMEAGERLGPCVVVPRAAAKETDFGWEQILTDVEVSPQEGCITKISEDLGSEKFCVDANQAGAGSWLKYIRVACSCDDQNLTMCQISEQIYYKVIKDIEPGEELLVHVKEGVYPLGTVPPGLDEEPTFRCDECDELFQSKLDLRRHKKYTCGSVGAALYEGLAEELKPEGLGGGSGQAHECKDCERMFPNKYSLEQHMVIHTEEREYKCDQCPKAFNWKSNLIRHQMSHDSGKRFECENCVKVFTDPSNLQRHIRSQHVGARAHACPDCGKTFATSSGLKQHKHIHSTVKPFICEVCHKSYTQFSNLCRHKRMHADCRTQIKCKDCGQMFSTTSSLNKHRRFCEGKNHYTPGGIFAPGLPLTPSPMMDKAKPSPSLNHASLGFNEYFPSRPHPGSLPFSTAPPTFPALTPGFPGIFPPSLYPRPPLLPPTSLLKSPLNHTQDAKLPSPLGNPALPLVSAVSNSSQGTTAAAGPEEKFESRLEDSCVEKLKTRSSDMSDGSDFEDVNTTTGTDLDTTTGTGSDLDSDVDSDPDKDKGKGKSAEGQPKFGGGLAPPGAPNSVAEVPVFYSQHSFFPPPDEQLLTATGAAGDSIKAIASIAEKYFGPGFMGMQEKKLGSLPYHSAFPFQFLPNFPHSLYPFTDRALAHNLLVKAEPKSPRDALKVGGPSAECPFDLTTKPKDVKPILPMPKGPSAPASGEEQPLDLSIGSRARASQNGGGREPRKNHVYGERKLGAGEGLPQVCPARMPQQPPLHYAKPSPFFMDPIYSRVEKRKVTDPVGALKEKYLRPSPLLFHPQMSAIETMTEKLESFAAMKADSGSSLQPLPHHPFNFRSPPPTLSDPILRKGKERYTCRYCGKIFPRSANLTRHLRTHTGEQPYRCKYCDRSFSISSNLQRHVRNIHNKEKPFKCHLCNRCFGQQTNLDRHLKKHEHENAPVSQHPGVLTNHLGTSASSPTSESDNHALLDEKEDSYFSEIRNFIANSEMNQASTRTEKRADMQIVDGSAQCPGLASEKQEDVEEEDDDDLEEDDEDSLAGKSQDDTVSPAPEPQAAYEDEEDEEPAASLAVGFDHTRRCAEDHEGGLLALEPMPTFGKGLDLRRAAEEAFEVKDVLNSTLDSEALKHTLCRQAKNQAYAMMLSLSEDTPLHTPSQGSLDAWLKVTGATSESGAFHPINHL
B3: PQBP1 (protein, UniProt O60828 2-265, looked up)
Polyglutamine-binding protein …: PLPVALQTRLAKRGILKHLEPEPEEEIIAEDYDDDPVDYEATRLEGLPPSWYKVFDPSCGLPYYWNADTDLVSWLSPHDPNSVVTKSAKKLRSSNADAEEKLDRSHDKSDRGHDKSDRSHEKLDRGHDKSDRGHDKSDRDRERGYDKVDRERERDRERDRDRGYDKADREEGKERRHHRREELAPYPKSKKAVSRKDEELDPMDPSSYSDAPRGTWSTGLPKRNEAKTGADTTAAGPLFQQRPYPSPGAVLRANAEASRTKQQD
B4: POU4F1 (protein, UniProt Q01851 1-419, looked up)
POU domain, class 4, …: MMSMNSKQPHFAMHPTLPEHKYPSLHSSSEAIRRACLPTPPLQSNLFASLDETLLARAEALAAVDIAVSQGKSHPFKPDATYHTMNSVPCTSTSTVPLAHHHHHHHHHQALEPGDLLDHISSPSLALMAGAGGAGAAAGGGGAHDGPGGGGGPGGGGGPGGGPGGGGGGGPGGGGGGPGGGLLGGSAHPHPHMHSLGHLSHPAAAAAMNMPSGLPHPGLVAAAAHHGAAAAAAAAAAGQVAAASAAAAVVGAAGLASICDSDTDPRELEAFAERFKQRRIKLGVTQADVGSALANLKIPGVGSLSQSTICRFESLTLSHNNMIALKPILQAWLEEAEGAQREKMNKPELFNGGEKKRKRTSIAAPEKRSLEAYFAVQPRPSSEKIAAIAEKLDLKKNVVRVWFCNQRQKQKRMKFSATY
B5: POU3F4 (protein, UniProt P49335 1-361, looked up)
POU domain, class 3, …: MATAASNPYSILSSTSLVHADSAGMQQGSPFRNPQKLLQSDYLQGVPSNGHPLGHHWVTSLSDGGPWSSTLATSPLDQQDVKPGREDLQLGAIIHHRSPHVAHHSPHTNHPNAWGASPAPNPSITSSGQPLNVYSQPGFTVSGMLEHGGLTPPPAAASAQSLHPVLREPPDHGELGSHHCQDHSDEETPTSDELEQFAKQFKQRRIKLGFTQADVGLALGTLYGNVFSQTTICRFEGLQLSFKNMCKLKPLLNKWLEEADSSTGSPTSIDKIAAQGRKRKKRTSIEVSVKGVLETHFLKCPKPAAQEISSLADSLQLEKEVVRVWFCNRRQKEKRMTPPGDQQPHEVYSHTVKTDTSCHDL
B6: POU5F2 (protein, UniProt Q8N7G0 1-328, looked up)
POU domain, class 5, …: MAGHRPSNHFCPLPGSGGGGPRGPMPLRVDTLTWLSTQAAPGRVMVWPAVRPGICPGPDVWRIPLGPLPHEFRGWIAPCRPRLGASEAGDWLRRPSEGALPGPYIALRSIPKLPPPEDISGILKELQQLAKELRQKRLSLGYSQADVGIAVGALFGKVLSQTTICRFEAQQLSVANMWKLRPLLKKWLKEVEAENLLGLCKMEMILQQSGKWRRASRERRIGNSLEKFFQRCPKPTPQQISHIAGCLQLQKDVVRVWFYNRSKMGSRPTNDASPREIVGTAGPPCPGAPVCFHLGLGLPVDIPHYTRLYSAGVAHSSAPATTLGLLRF
B7: PPARD (protein, UniProt Q03181 1-441, looked up)
Peroxisome …: MEQPQEEAPEVREEEEKEEVAEAEGAPELNGGPQHALPSSSYTDLSRSSSPPSLLDQLQMGCDGASCGSLNMECRVCGDKASGFHYGVHACEGCKGFFRRTIRMKLEYEKCERSCKIQKKNRNKCQYCRFQKCLALGMSHNAIRFGRMPEAEKRKLVAGLTANEGSQYNPQVADLKAFSKHIYNAYLKNFNMTKKKARSILTGKASHTAPFVIHDIETLWQAEKGLVWKQLVNGLPPYKEISVHVFYRCQCTTVETVRELTEFAKSIPSFSSLFLNDQVTLLKYGVHEAIFAMLASIVNKDGLLVANGSGFVTREFLRSLRKPFSDIIEPKFEFAVKFNALELDDSDLALFIAAIILCGDRPGLMNVPRVEAIQDTILRALEFHLQANHPDAQYLFPKLLQKMADLRQLVTEHAQMMQRIKKTETETSLHPLLQEIYKDMY
B8: PRDM10 (protein, UniProt Q9NQV6 1-1147, looked up)
PR domain zinc finger protein …: MDSKDESSHVWPTSAEHEQNAAQVHFVPDTGTVAQIVYTDDQVRPPQQVVYTADGASYTSVDGPEHTLVYIHPVEAAQTLFTDPGQVAYVQQDATAQQASLPVHNQVLPSIESVDGSDPLATLQTPLGRLEAKEEEDEDEDEDTEEDEEEDGEDTDLDDWEPDPPRPFDPHDLWCEECNNAHASVCPKHGPLHPIPNRPVLTRARASLPLVLYIDRFLGGVFSKRRIPKRTQFGPVEGPLVRGSELKDCYIHLKVSLDKGDRKERDLHEDLWFELSDETLCNWMMFVRPAQNHLEQNLVAYQYGHHVYYTTIKNVEPKQELKVWYAASYAEFVNQKIHDISEEERKVLREQEKNWPCYECNRRFISSEQLQQHLNSHDEKLDVFSRTRGRGRGRGKRRFGPGRRPGRPPKFIRLEITSENGEKSDDGTQDLLHFPTKEQFDEAEPATLNGLDQPEQTTIPIPQLPQETQSSLEHEPETHTLHLQPQHEESVVPTQSTLTADDMRRAKRIRLELQNAALQHLFIRKSFRPFKCLQCGKAFREKDKLDQHLRFHGREGNCPLTCDLCNKGFISSTSLESHMKLHSDQKTYSCIFCPESFDRLDLLKDHVAIHINDGYFTCPTCKKRFPDFIQVKKHVRSFHSEKIYQCTECDKAFCRPDKLRLHMLRHSDRKDFLCSTCGKQFKRKDKLREHMQRMHNPEREAKKADRISRSKTFKPRITSTDYDSFTFKCRLCMMGFRRRGMLVNHLSKRHPDMKIEEVPELTLPIIKPNRDYFCQYCDKVYKSASKRKAHILKNHPGAELPPSIRKLRPAGPGEPDPMLSTHTQLTGTIATPPVCCPHCSKQYSSKTKMVQHIRKKHPEFAQLSNTIHTPLTTAVISATPAVLTTDSATGETVVTTDLLTQAMTELSQTLTTDYRTPQGDYQRIQYIPVSQSASGLQQPQHIQLQVVQVASATSPHQSQQSTVDVGQLHDPQPYPQHAIQVQHIQVSGQPLSPSAQQAQQGLSPSHIQGSSSTQGQALQQQQQQQQNSSVQHTYLPSAWNSFRGYSSEIQMMTLPPGQFVITDSGVATPVTTGQVKAVTSGHYVLSESQSELEEKQTSALSGGVQVEPPAHSDSLDPQTNSQQQTTQYIITTTTNGNGSSEVHITKP
B9: PRDM12 (protein, UniProt Q9H4Q4 1-367, looked up)
PR domain zinc finger protein …: MMGSVLPAEALVLKTGLKAPGLALAEVITSDILHSFLYGRWRNVLGEQLFEDKSHHASPKTAFTAEVLAQSFSGEVQKLSSLVLPAEVIIAQSSIPGEGLGIFSKTWIKAGTEMGPFTGRVIAPEHVDICKNNNLMWEVFNEDGTVRYFIDASQEDHRSWMTYIKCARNEQEQNLEVVQIGTSIFYKAIEMIPPDQELLVWYGNSHNTFLGIPGVPGLEEDQKKNKHEDFHPADSAAGPAGRMRCVICHRGFNSRSNLRSHMRIHTLDKPFVCRFCNRRFSQSSTLRNHVRLHTGERPYKCQVCQSAYSQLAGLRAHQKSARHRPPSTALQAHSPALPAPHAHAPALAAAAAAAAAAAAHHLPAMVL

system: HEK293FT cells transfected with TF library; assay: Screening of TF condensates based on fluorescent puncta; type: cell-based; conditions: Figure 1B numerical data; TF library screen, one value per transcriptional factor
Summary of the method: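 Each TF construct was introduced into HEK293FT cells using PEI at 4.8 μg/ml; glucose deprivation versus normal medium lasted 12 h. Automated confocal-style imaging of tagged TF staining, 50 fields per well, gave the puncta data.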

Molecule | Z score of condensed fraction
B1 | 1.258
B2 | -0.4468
B3 | -0.5347
B4 | -0.7489
B5 | -0.484
B6 | 1.226
B7 | -0.9649
B8 | 0.3409
B9 | -1.027
